Measurements as given in patent US20030049605A1 (published 2003).

B1: gpIII/env2 phage (ecotropic Moloney MuLV envelope residues 34-308 displayed as a fusion with M13 gpIII) (other)
chain: ASPGSSPHQVYNITWEVTNGDRETVWATSGNHPLWTWWPDLTPDLCMLAHHGPSYWGLEYQSPFSSPPGPPCCSGGSSPGCSRDCEEPLTSLTPRCNTAWNRLKLDQTTHKSNEGFYVCPGPHRPRESKSCGGPDSFYCAYWGCETTGRAYWKPSSSWDFITVNNNLTSDQAVQVCKDNKWCNPLVIRFTDAGRRVTSWTTGHYWGLRLYVSGQDPGLTFGIRLRYQNLGPRVPIGPNPVLADQQPLSKPKPVKSPSVTKPPSGTPLSPTQLPPATSGGGGS
notes: range 34-308; Tested as whole phage particles. pelB leader left out; also called construct 2
B2: gpIII/env3 phage (ecotropic Moloney MuLV envelope residues 34-266 displayed as a fusion with M13 gpIII) (other)
chain: ASPGSSPHQVYNITWEVTNGDRETVWATSGNHPLWTWWPDLTPDLCMLAHHGPSYWGLEYQSPFSSPPGPPCCSGGSSPGCSRDCEEPLTSLTPRCNTAWNRLKLDQTTHKSNEGFYVCPGPHRPRESKSCGGPDSFYCAYWGCETTGRAYWKPSSSWDFITVNNNLTSDQAVQVCKDNKWCNPLVIRFTDAGRRVTSWTTGHYWGLRLYVSGQDPGLTFGIRLRYQNLGPRVTSGGGGS
notes: range 34-266; Tested as whole phage particles. pelB leader left out; also called construct 3
B3: gpIII/env1 phage (ecotropic Moloney MuLV envelope residues 34-468 displayed as a fusion with M13 gpIII) (other)
chain: ASPGSSPHQVYNITWEVTNGDRETVWATSGNHPLWTWWPDLTPDLCMLAHHGPSYWGLEYQSPFSSPPGPPCCSGGSSPGCSRDCEEPLTSLTPRCNTAWNRLKLDQTTHKSNEGFYVCPGPHRPRESKSCGGPDSFYCAYWGCETTGRAYWKPSSSWDFITVNNNLTSDQAVQVCKDNKWCNPLVIRFTDAGRRVTSWTTGHYWGLRLYVSGQDPGLTFGIRLRYQNLGPRVPIGPNPVLADQQPLSKPKPVKSPSVTKPPSGTPLSPTQLPPAGTENRLLNLVDGAYQALNLTSPDKTQECWLCLVAGPPYYEGVAVLGTYSNHTSAPANCSVASQHKLTLSEVTGQGLCIGAVPKTHQALCNTTQTSSRGSYYLVAPTGTMWACSTGLTPCISTTILNLTTDYCVLVELWPRVTYHSPSYVYGLFERSNRHKTSGGGGSPFVCEYQGQSSDLPQPPVNAGGGSGGGSGGGSEGGGSEGGGSEGGGSEGGGSGGGSGSGDFDYEKMANANKGAMTENADENALQSDAKGKLDSVATDYGAAIDGFIGDVSGLANGNGATGDFAGSNSQMAQVGDGDNSPLMNNFRQYLPSLPQSVECRPFVFSAGKPYEFSIDCDKINLFRGVFAFLLYVATFMYVFSTFANILRNKES
notes: Tested as whole phage particles displaying the fusion; also called construct 1

Target: T1, mCAT1, ecotropic retroviral receptor (cationic amino acid transporter), expressed on human 911 cells … (mouse, UniProt Q09143 1-622)
T1 construct: whole, on cells; also called mATRC1; 911-mCAT1-3H7
T1 sequence (Q09143 whole entry): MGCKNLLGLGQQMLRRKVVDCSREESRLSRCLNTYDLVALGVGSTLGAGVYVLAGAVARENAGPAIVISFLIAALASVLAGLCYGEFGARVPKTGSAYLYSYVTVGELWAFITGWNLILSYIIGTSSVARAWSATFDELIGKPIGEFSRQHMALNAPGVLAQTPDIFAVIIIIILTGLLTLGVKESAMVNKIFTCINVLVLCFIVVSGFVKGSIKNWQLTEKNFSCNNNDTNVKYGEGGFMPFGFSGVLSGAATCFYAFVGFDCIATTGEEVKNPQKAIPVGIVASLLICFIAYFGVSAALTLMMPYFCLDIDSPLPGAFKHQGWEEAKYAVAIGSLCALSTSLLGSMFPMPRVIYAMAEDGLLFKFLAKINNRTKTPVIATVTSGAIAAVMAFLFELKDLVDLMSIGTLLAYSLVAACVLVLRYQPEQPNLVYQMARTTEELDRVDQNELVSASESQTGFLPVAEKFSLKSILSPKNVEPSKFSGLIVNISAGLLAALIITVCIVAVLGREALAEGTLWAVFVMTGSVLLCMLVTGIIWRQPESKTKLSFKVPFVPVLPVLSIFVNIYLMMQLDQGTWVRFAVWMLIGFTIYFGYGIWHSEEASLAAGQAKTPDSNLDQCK
Test: phage binding to cells, elution with triethylamine, titering (cfu)

| Binder | times more eluted phage from 911-mCAT1 cell line as compared to 911-pcDNA3 cell line [times] |
| --- | --- |
| B1 | 97 |
| B2 | 26 |
| B3 | 11 |
